{"source": "patent US20110021974A1", "about": "“RETINITIS PIGMENTOSA TREATMENT AND PROPHALAXIS” (priority 2010, published 2011)", "key": {"[1]": {"system": "macular edema", "conditions": "in vivo; cited from earlier work"}, "[2]": {"assay": "Curcumin safety for retina and CNS", "conditions": "in vivo", "description": "Deferoxamine may modulate expression and release of inflammatory mediators in the retinitis pigmentosa as indicated in Fenton reaction by specific cell types, thus, reduce or stop the damage by our invention. Deferoxamine used with insulin of our invention along with ophthalmic drops can reduce the ROS oxidant damage, arrest, or delay the processes of retinitis pigmentosa. We have used this method to treat the CNS disease with good results. We have used the extract of Turmeric, called curcumin, with insulin as antioxidant with good results."}, "[3]": {"assay": "MSM ophthalmic drops in patients", "assay_type": "in vivo", "source_text": "We have used aqueous solutions of MSM filtered, sterilized, and mixed with insulin."}, "[4]": {"conditions": "cited from earlier work"}, "[5]": {"system": "retinitis pigmentosa", "conditions": "administered in a form suitable to obtain therapeutic tissue concentrations; cited from earlier work"}, "[6]": {"system": "patients with retinitis pigmentosa", "conditions": "cited from earlier work"}, "[7]": {"conditions": "in vivo; cited from earlier work"}, "[8]": {"assay": "ADT given orally and as eye drops in dry mouth and dry eyes conditions", "assay_type": "in vivo", "conditions": "25 mg orally and nanograms concentration in eye drops", "method": "Follow the instruction as described in the above EXAMPLE 1. Another drug available to treat autoimmune disease related to Sjogren's disease is an organo sulfur compound, anethole dithiolethione (ADT-trade name Sialor, sold over the counter in Canada) with hardly any side effects. The ADT stimulates the secretion of saliva, in patients with autoimmune exocrinopathy (Sjogren's syndrome). Sialor alleviates the symptoms of xerostomia and xeroophthalmia. We have used ADT 25 mg orally and ADT in nanograms concentration in liquid ophthalmic eye drops with successes in these conditions, especially, those on chemotherapy, menopausal women, and chronic smokers with dry mouth and dry eyes conditions."}, "[9]": {"system": "photoreceptor cell", "conditions": "applied topically to the eyes; in vitro model; cited from earlier work"}, "[10]": {"system": "retinitis pigmentosa", "assay": "Insulin ophthalmic drops in oculopathies including retinitis pigmentosa", "assay_type": "in vivo", "conditions": "used for years", "description": "This and other metabolic and therapeutic qualities of the insulin will prevent the development, stop the progression, and curtail or cure the retinitis pigmentosa. I have used insulin ophthalmic drops for various oculopathies, including, retinitis pigmentosa for years with great success."}, "[11]": {"description": "The present invention formulations contain only 0.10 to 1.00 IU per drop which the dosage can be increased or the dosage can be decreased depending upon the disease states."}, "[12]": {"assay": "Insulin added to anti allergic ophthalmic agents in eye allergy", "assay_type": "in vivo", "conditions": "insulin with vasoconstrictors and anti allergic agents such as corticosteroids", "description": "Follow the instruction as described in the above EXAMPLE 1. The symptoms of an eye allergy are mild to moderate where allergies can be severe during early spring and the beginning of fall. Self treatment to avoid allergens, to irrigate the eyes with saline (salt solution) and to place the ice packs, and the cold water compresses on eyes which this may not be effective in a severe case. The medical treatment is needed to relieve them. Retinitis pigmentosa associated with severe allergic conjunctivitis. This condition isn't helped by other treatments. Conjunctivitis may benefit from specific allergen immunotherapy (desensitization) which the therapy is usually effective. Most commonly used and prescribed medications are: levocabastine (brand name Livostin); antihistamines (antolozine) together with a medicine that constricts blood vessels (naphazoline, phenylephrine); sodium cromoglycate (4%); non-steroidal anti-inflammatory (NSAID) eye drops; and steroids (hydrocortisone, Dexamethasone, prednisolone). Eye drops containing anti allergic, vasoconstrictors, and cortisone, can be used long term to treat retinitis pigmentosa and allergic conditions. The drops with insulin applied before the use of the above described therapeutic agents."}, "[13]": {"conditions": "preliminary studies"}, "[14]": {"system": "MCF-7 human breast cancer cells", "conditions": "in vitro; cited from earlier work"}, "[15]": {"system": "H2O2 induced lipid peroxidation", "conditions": "insulin pretreatment; cited from earlier work"}}, "data": [{"compound": "CC(=O)Nc1nnc(S(N)(=O)=O)s1", "note": "[Acetazolamide]", "values": [{"measurement": "improving the macular edema compared to brinzolamide", "setting": "[1]", "value": "more effective"}]}, {"compound": "COc1cc(/C=C/C(=O)CC(=O)/C=C/c2ccc(O)c(OC)c2)ccc1O", "note": "[Curcumin, curcumin]", "values": [{"measurement": "toxicity to the retina or the CNS", "setting": "[2]", "value": "isn't toxic to the retina or the CNS"}]}, {"compound": "CS(C)(=O)=O", "note": "[MSM, Methylsulfonylmethane]", "values": [{"measurement": "vision reported by patients", "setting": "[3]; MSM ophthalmic drops, aged, Lyme disease and cancer patients", "value": "their vision had improved"}, {"measurement": "treatment result in retinitis pigmentosa, dry eye syndrome, glaucoma and other oculopathies", "setting": "[3]; aqueous MSM mixed with insulin, as eye drops", "value": "good results"}, {"measurement": "solubility in water", "setting": "[4]", "value": "soluble in water"}]}, {"compound": "O=C(O)COc1nn(Cc2ccccc2)c2ccccc12", "note": "[bendazac, (1-phenylmethyl-1IH-indazol-3-yl) oxy acetic acid]", "values": [{"measurement": "effect on retinitis pigmentosa", "setting": "[5]", "value": "improvement in retinitis pigmentosa"}]}, {"compound": "CCCCCCCCCCCCCCCC(=O)OC/C=C(C)/C=C/C=C(C)/C=C/C1=C(C)CCCC1(C)C", "note": "[vitamin A palmitate]", "values": [{"measurement": "progression of retinitis pigmentosa", "setting": "[6]; daily intake of 15000 IU (equivalent to 4.5 mg)", "value": "can be reduced"}]}, {"compound": "Insulin aspart", "values": [{"measurement": "Onset of Action in hours", "setting": "[7]", "value": "¼-½"}]}, {"compound": "Insulin detemir", "values": [{"measurement": "Effective duration of action", "setting": "[7]", "value": 14, "unit": "h"}, {"measurement": "Maximum duration", "setting": "[7]", "value": "~20", "unit": "h"}, {"measurement": "Onset of Action", "setting": "[7]", "value": "3 to 4", "unit": "h"}, {"measurement": "Peak action in hours", "setting": "[7]", "value": "6 to 8", "unit": "h"}]}, {"compound": "Insulin glargine", "values": [{"measurement": "Effective duration of action", "setting": "[7]", "value": "18 to 20", "unit": "h"}, {"measurement": "Maximum duration", "setting": "[7]", "value": "20 to 24", "unit": "h"}, {"measurement": "Onset of Action", "setting": "[7]", "value": "3 to 4", "unit": "h"}, {"measurement": "Peak action in hours", "setting": "[7]", "value": "8 to 16", "unit": "h"}]}, {"compound": "Insulin glulisine", "values": [{"measurement": "Onset of Action in hours", "setting": "[7]", "value": "¼-½"}]}, {"compound": "Insulin lispro", "values": [{"measurement": "Onset of Action in hours", "setting": "[7]", "value": "¼-½"}]}, {"compound": "Regular (soluble): short-acting insulin", "values": [{"measurement": "Effective duration of action", "setting": "[7]", "value": "3 to 6", "unit": "h"}, {"measurement": "Maximum duration", "setting": "[7]", "value": "6 to 8", "unit": "h"}, {"measurement": "Peak action in hours", "setting": "[7]", "value": "2 to 3", "unit": "h"}]}, {"compound": "anethole dithiolethione [ADT]", "values": [{"measurement": "treatment result in dry mouth and dry eyes conditions", "setting": "[8]", "value": "successes"}]}, {"compound": "brimonidine tartrate", "values": [{"measurement": "photoreceptor cell degeneration", "setting": "[9]", "value": "can prevent photoreceptor cell degeneration"}]}, {"compound": "insulin", "values": [{"measurement": "treatment result in oculopathies including retinitis pigmentosa", "setting": "[10]", "value": "great success"}, {"measurement": "blood sugar levels after local application", "setting": "[11]; local application incl. scalp, gums, oral and nasal mucosa, conjunctival sac, wounds, tumors", "value": "did not change the blood sugar levels"}, {"measurement": "hypoglycemic effects", "setting": "[11]; ophthalmic insulin drops, applicant's practice", "value": "never reported the development of a single case of hypoglycemic effects"}, {"measurement": "relief of the allergic condition", "setting": "[12]", "value": "relieved rapidly"}, {"measurement": "absorption from the conjunctival sac", "setting": "[13]", "value": "rapidly absorbed"}, {"measurement": "increase of the cytotoxic effect of methotrexate", "setting": "[14]", "value": "up to 10,000 fold"}, {"measurement": "H2O2 induced lipid peroxidation", "setting": "[15]", "value": "greatly inhibited"}]}, {"compound": "vitamin A", "values": [{"measurement": "postponement of blindness", "setting": "[6]; vitamin A supplementation", "value": "~10", "unit": "years"}]}]}
